Data reported in article PMC8204981, “Helicobacter pylori GmhB enzyme involved in ADP-heptose biosynthesis pathway is essential for lipopolysaccharide biosynthesis and bacterial virulence” (Virulence, 2021).

Tests used:
[1] = tested on: O=P(O)(O)OC[C@@H](O)[C@H]1O[C@H](OP(=O)(O)O)[C@@H](O)[C@@H](O)[C@@H]1O; assay: purified protein; details: 20 mM HEPES pH 8.0, 10 mM MgCl2, 10 mM KCl, 25 °C, 30 min
Description: (§1) malachite green phosphate release assay, Michaelis-Menten fit on HP0860 protein (H. pylori GmhB)

[2] = tested on: O=P(O)(O)OC[C@@H](O)[C@H]1O[C@@H](OP(=O)(O)O)[C@@H](O)[C@@H](O)[C@@H]1O; assay: purified protein; details: 20 mM HEPES pH 8.0, 10 mM MgCl2, 10 mM KCl, 25 °C, 30 min
Description: as §1

**Q.** With “HP0860 protein (H. pylori GmhB) (Helicobacter pylori 26695)” as the substance, how does the Km [1] read?
**A.** Its Km is 300 ± 80 µM.

**Q.** And the kcat [1]?
**A.** Its kcat is 1.07 ± 0.1 s⁻¹.

**Q.** And the kcat/Km [1]?
**A.** Its kcat/Km is 3570 M⁻¹ s⁻¹.

**Q.** And the Km [2]?
**A.** The Km was 210 ± 50 µM.

**Q.** What about the kcat [2] of the same substance?
**A.** The kcat was 2.18 ± 0.17 s⁻¹.

**Q.** What about the kcat/Km [2] of the same substance?
**A.** Its kcat/Km is 10400 M⁻¹ s⁻¹.
